Reference: paper PMC3273594
Each block holds one molecule with its values, some of them ahead of it.

What was measured:
[1] = target: TOAC labeled wild-type PLB; experiment: SDS-PAGE
[2] = target: T1, Wild-type Phospholamban, P61014; experiment: SDS-PAGE; conditions: remark: other sources report otherwise
T1 chain: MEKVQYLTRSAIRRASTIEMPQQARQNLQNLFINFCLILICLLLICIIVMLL

stoichiometry N [1]: 5
Molecule: TOAC labeled wild-type PLB

stoichiometry N [2]: 5
B1: Wild-type Phospholamban, P61014 1-52 (natural protein)
chain: T1 chain
